From publication PMC6940360

Target: Taxol-stabilized microtubules (MTs) from HeLa S3 cells (human (endogenous in HeLa S3)) (UniProt P68363)
Assay: solid-state NMR (J-based 2D 15N-HSQC); unlabeled MAP7-MTBD added to [13C,15N]-labeled MTs at molar ratio 2:1 MAP7-MTBD:MT in BRB80 with 20 uM taxol, 30 °C for 30 min, pelleted at 180,000 x g; MAS 44 kHz, actual temperature 293 K; bound population from a two-state model, P_bound = 1 - I_bound/I_free

- bound population of alpha-tubulin Tyr451 (P bound): 65%
- bound population of beta-tubulin Ala444 (P bound): 25%
- bound population of tail residues around the EGE and FGE segments (P bound): < 80%
B1: MAP7-MTBD (microtubule-binding domain of MAP7D3, residues 59-170) (domain or fragment)
chain: DGSMLKNDIKQRLARERREEKRRQQDANKETQLLEKERKTKLQYEKQMEERQRKLKERKEKEEQRRIAAEEKRHQKDEAQKEKFTAILYRTLERRRLADDYQQKRWSWGGSA
